Test results taken from patent US20260265379A1.

B1: bsAb003 (bispecific antibody, human IgG1, kappa)
heavy: QVQLVQSGAEVKKPGASVKLSCKASGYIFTRYYMYWVKQRPGQGLEWIGEINPNNGGTKFNEKFKNRATLTVDKSISTAYMELSRLRSDDTAVYYCSREDDYDGTPFAMDYWGQGTLVTVSSASTKGPSVFPLAPSSKSTSGGTAALGCLVKDYFPEPVTVSWNSGALTSGVHTFPAVLQSSGLYSLSSVVTVPSSSLGTQTYICNVNHKPSNTKVDKRVEPKSCDKTHTCPPCPAPEFEGGPSVFLFPPKPKDTLMISRTPEVTCVVVDVSHEDPEVKFNWYVDGVEVHNAKTKPREEQYNSTYRVVSVLTVLHQDWLNGKEYKCKVSNKALPASIEKTISKAKGQPREPQVYTLPPSREEMTKNQVSLTCLVKGFYPSDIAVEWESNGQPENNYKTTPPVLDSDGSFFLYSKLTVDKSRWQQGNVFSCSVMHEALHNHYTQKSLSLSPGGGGGSGGGGSGGGGSGGGGSEVQLVESGGGLVQPGGSLRLSCAASGFTFSRYWMSWVRQAPGKGLEWVANIKQDGSEKYYVDSVKGRFTISRDNAKNSLYLQMNSLRAEDTAVYYCAREGGWFGELAFDYWGQGTLVTVSSGGGGSGGGGSGGGGSGGGGSEIVLTQSPGTLSLSPGERATLSCRASQRVSSSYLAWYQQKPGQAPRLLIYDASSRATGIPDRFSGSGSGTDFTLTISRLEPEDFAVYYCQQYGSLPWTFGQGTKVEIK
light: not shown
B2: bsAb039 (bispecific antibody, not shown: small tags and cut ends; a dimerising Fc or GST)
heavy (part 1 of 2): QVQLVQSGVEVKKPGASVKVSCKASGYTFTNYYMYWVRQAPGQGLEWMGGINPSNGGTNFNEKFKNRVTLTTDSSTTTAYMELKSLQFDDTAVYYCARRDYRFDMGFDYWGQGTTVTVSS
heavy (part 2 of 2): GGGGSGGGGSGGGGSGGGGSDIQMTQSPSSLSASVGDRVTITCHASQNINVWLSWYQQKPGKAPKLLIYKASNLHTGVPSRFTGSGSGTDFTFTISSLQPEDIATYYCQQGQTYPYTFGQGTKLEIKGGGGSGGGGSGGGGSGGGGSQVQLVQSGAEVKKPGASVKLSCKASGYIFTRYYMYWVKQRPGQGLEWIGEINPNNGGTKFNEKFKNRATLTVDKSISTAYMELSRLRSDDTAVYYCSREDDYDGTPFAMDYWGQGTLVTVSS
heavy: B2 heavy (part 2 of 2)
light: EIVLTQSPATLSLSPGERATLSCRASKGVSTSGYSYLHWYQQKPGQAPRLLIYLASYLESGVPARFSGSGSGTDFTLTISSLEPEDFAVYYCQHSRDLPLTFGGGTKVEIKRTVAAPSVFIFPPSDEQLKSGTASVVCLLNNFYPREAKVQWKVDNALQSGNSQESVTEQDSKDSTYSLSSTLTLSKADYEKHKVYACEVTHQGLSSPVTKSFNRGEC
B3: bsAb053 (bispecific antibody, not shown: small tags and cut ends)
heavy (part 1 of 2): B2 heavy (part 1 of 2)
heavy (part 2 of 2): GGGGSGGGGSGGGGSGGGGSQVQLVQSGAEVKKPGASVKLSCKASGYIFTRYYMYWVKQRPGQGLEWIGEINPNNGGTKFNEKFKNRATLTVDKSISTAYMELSRLRSDDTAVYYCSREDDYDGTPFAMDYWGQGTLVTVSSGGGGSGGGGSGGGGSGGGGSDIQMTQSPSSLSASVGDRVTITCHASQNINVWLSWYQQKPGKAPKLLIYKASNLHTGVPSRFTGSGSGTDFTFTISSLQPEDIATYYCQQGQTYPYTFGQGTKLEIK
heavy: B2 heavy (part 1 of 2)
light: B2 light
B4: bsAb042 (bispecific antibody, not shown: small tags and cut ends; a dimerising Fc or GST)
heavy 1: B2 heavy (part 1 of 2)
heavy 2: QVQLVQSGAEVKKPGASVKLSCKASGYIFTRYYMYWVKQRPGQGLEWIGEINPNNGGTKFNEKFKNRATLTVDKSISTAYMELSRLRSDDTAVYYCSREDDYDGTPFAMDYWGQGTLVTVSSGGGGSGGGGSGGGGSGGGGSDIQMTQSPSSLSASVGDRVTITCHASQNINVWLSWYQQKPGKAPKLLIYKASNLHTGVPSRFTGSGSGTDFTFTISSLQPEDIATYYCQQGQTYPYTFGQGTKLEIKGGGGSGGGGSGGGGSGGGGS
light: EIVLTQSPATLSLSPGERATLSCRASKGVSTSGYSYLHWYQQKPGQAPRLLIYLASYLESGVPARFSGSGSGTDFTLTISSLEPEDFAVYYCQHSRDLPLTFGGGTKVEIKRTVAAPSVFIFPPSDEQLKSGTASVVCLLNNFYPREAKVQWKVDNALQSGNSQESVTEQDSKDSTYSLSSTLTLSKADYEKHKVYACEVTHQGLSSPVTKSFNRGECGGGGSGGGGSGGGGSGGGGSDIQMTQSPSSLSASVGDRVTITCHASQNINVWLSWYQQKPGKAPKLLIYKASNLHTGVPSRFTGSGSGTDFTFTISSLQPEDIATYYCQQGQTYPYTFGQGTKLEIKGGGGSGGGGSGGGGSGGGGSQVQLVQSGAEVKKPGASVKLSCKASGYIFTRYYMYWVKQRPGQGLEWIGEINPNNGGTKFNEKFKNRATLTVDKSISTAYMELSRLRSDDTAVYYCSREDDYDGTPFAMDYWGQGTLVTVSS
B5: bsAb011 (bispecific antibody)
heavy: QVQLVQSGAEVKKPGASVKLSCKASGYIFTRYYMYWVKQRPGQGLEWIGEINPNNGGTKFNEKFKNRATLTVDKSISTAYMELSRLRSDDTAVYYCSREDDYDGTPFAMDYWGQGTLVTVSSASTKGPSVFPLAPSSKSTSGGTAALGCLVKDYFPEPVTVSWNSGALTSGVHTFPAVLQSSGLYSLSSVVTVPSSSLGTQTYICNVNHKPSNTKVDKRVEPKSCDKTHTCPPCPAPEFEGGPSVFLFPPKPKDTLMISRTPEVTCVVVDVSHEDPEVKFNWYVDGVEVHNAKTKPREEQYNSTYRVVSVLTVLHQDWLNGKEYKCKVSNKALPASIEKTISKAKGQPREPQVYTLPPSREEMTKNQVSLTCLVKGFYPSDIAVEWESNGQPENNYKTTPPVLDSDGSFFLYSKLTVDKSRWQQGNVFSCSVMHEALHNHYTQKSLSLSPG
light: not shown
B6: bsAb001 (bispecific antibody, human IgG1, kappa)
heavy: QVQLVQSGAEVKKPGASVKLSCKASGYIFTRYYMYWVKQRPGQGLEWIGEINPNNGGTKFNEKFKNRATLTVDKSISTAYMELSRLRSDDTAVYYCSREDDYDGTPFAMDYWGQGTLVTVSSASTKGPSVFPLAPSSKSTSGGTAALGCLVKDYFPEPVTVSWNSGALTSGVHTFPAVLQSSGLYSLSSVVTVPSSSLGTQTYICNVNHKPSNTKVDKRVEPKSCDKTHTCPPCPAPEFEGGPSVFLFPPKPKDTLMISRTPEVTCVVVDVSHEDPEVKFNWYVDGVEVHNAKTKPREEQYNSTYRVVSVLTVLHQDWLNGKEYKCKVSNKALPASIEKTISKAKGQPREPQVYTLPPSREEMTKNQVSLTCLVKGFYPSDIAVEWESNGQPENNYKTTPPVLDSDGSFFLYSKLTVDKSRWQQGNVFSCSVMHEALHNHYTQKSLSLSPGGGGGSGGGGSGGGGSGGGGSQVQLVQSGVEVKKPGASVKVSCKASGYTFTNYYMYWVRQAPGQGLEWMGGINPSNGGTNFNEKFKNRVTLTTDSSTTTAYMELKSLQFDDTAVYYCARRDYRFDMGFDYWGQGTTVTVSSGGGGSGGGGSGGGGSGGGGSEIVLTQSPATLSLSPGERATLSCRASKGVSTSGYSYLHWYQQKPGQAPRLLIYLASYLESGVPARFSGSGSGTDFTLTISSLEPEDFAVYYCQHSRDLPLTFGGGTKVEIK
light: not shown
B7: bsAb059 (bispecific antibody)
heavy: QVQLVQSGVEVKKPGASVKVSCKASGYTFTNYYMYWVRQAPGQGLEWMGGINPSNGGTNFNEKFKNRVTLTTDSSTTTAYMELKSLQFDDTAVYYCARRDYRFDMGFDYWGQGTTVTVSSASTKGPSVFPLAPSSKSTSGGTAALGCLVKDYFPEPVTVSWNSGALTSGVHTFPAVLQSSGLYSLSSVVTVPSSSLGTQTYICNVNHKPSNTKVDKRVEPKSCDKTHTCPPCPAPEFEGGPSVFLFPPKPKDTLMISRTPEVTCVVVDVSHEDPEVKFNWYVDGVEVHNAKTKPREEQYNSTYRVVSVLTVLHQDWLNGKEYKCKVSNKALPASIEKTISKAKGQPREPQVYTLPPSREEMTKNQVSLTCLVKGFYPSDIAVEWESNGQPENNYKTTPPVLDSDGSFFLYSKLTVDKSRWQQGNVFSCSVMHEALHNHYTQKSLSLSPG
light: QVQLVQSGAEVKKPGASVKLSCKASGYIFTRYYMYWVKQRPGQGLEWIGEINPNNGGTKFNEKFKNRATLTVDKSISTAYMELSRLRSDDTAVYYCSREDDYDGTPFAMDYWGQGTLVTVSSGGGGSGGGGSGGGGSGGGGSDIQMTQSPSSLSASVGDRVTITCHASQNINVWLSWYQQKPGKAPKLLIYKASNLHTGVPSRFTGSGSGTDFTFTISSLQPEDIATYYCQQGQTYPYTFGQGTKLEIKGGGGSGGGGSGGGGSGGGGSEIVLTQSPATLSLSPGERATLSCRASKGVSTSGYSYLHWYQQKPGQAPRLLIYLASYLESGVPARFSGSGSGTDFTLTISSLEPEDFAVYYCQHSRDLPLTFGGGTKVEIKRTVAAPSVFIFPPSDEQLKSGTASVVCLLNNFYPREAKVQWKVDNALQSGNSQESVTEQDSKDSTYSLSSTLTLSKADYEKHKVYACEVTHQGLSSPVTKSFNRGEC
B8: bsAb060 (bispecific antibody)
heavy: B7 heavy
light: DIQMTQSPSSLSASVGDRVTITCHASQNINVWLSWYQQKPGKAPKLLIYKASNLHTGVPSRFTGSGSGTDFTFTISSLQPEDIATYYCQQGQTYPYTFGQGTKLEIKGGGGSGGGGSGGGGSGGGGSQVQLVQSGAEVKKPGASVKLSCKASGYIFTRYYMYWVKQRPGQGLEWIGEINPNNGGTKFNEKFKNRATLTVDKSISTAYMELSRLRSDDTAVYYCSREDDYDGTPFAMDYWGQGTLVTVSSGGGGSGGGGSGGGGSGGGGSEIVLTQSPATLSLSPGERATLSCRASKGVSTSGYSYLHWYQQKPGQAPRLLIYLASYLESGVPARFSGSGSGTDFTLTISSLEPEDFAVYYCQHSRDLPLTFGGGTKVEIKRTVAAPSVFIFPPSDEQLKSGTASVVCLLNNFYPREAKVQWKVDNALQSGNSQESVTEQDSKDSTYSLSSTLTLSKADYEKHKVYACEVTHQGLSSPVTKSFNRGEC

Target: BTN3A expressed at the cell surface (human), O00481
Assay: cell-based or functional assay

Chain of BTN3A expressed at the cell surface (human), O00481 (O00481 30-513): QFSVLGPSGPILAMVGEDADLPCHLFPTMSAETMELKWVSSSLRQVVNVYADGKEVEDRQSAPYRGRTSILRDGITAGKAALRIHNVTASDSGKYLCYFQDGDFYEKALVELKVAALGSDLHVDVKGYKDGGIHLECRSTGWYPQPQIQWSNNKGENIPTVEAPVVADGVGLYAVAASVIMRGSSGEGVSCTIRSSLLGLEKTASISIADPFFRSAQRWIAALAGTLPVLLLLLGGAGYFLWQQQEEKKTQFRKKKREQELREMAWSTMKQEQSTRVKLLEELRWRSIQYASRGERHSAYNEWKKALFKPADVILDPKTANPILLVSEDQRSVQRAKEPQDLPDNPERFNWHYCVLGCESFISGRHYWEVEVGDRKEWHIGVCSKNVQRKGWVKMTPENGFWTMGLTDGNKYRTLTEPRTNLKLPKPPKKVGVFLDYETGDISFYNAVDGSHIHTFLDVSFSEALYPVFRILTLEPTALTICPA

Row | Binder | Jurkat-Vy9Vo2 TCR MOP activation at 0.5 nM (fold-change to medium) | Jurkat-Vy9Vo2 TCR MOP activation at 5 nM (fold-change to medium)
1 | B1 | 13.6 | 10.7
2 | B2 | 0.9 | 1
3 | B3 | 1.2 | 1.1
4 | B4 | 1.1 | 1
5 | B5 | 12.2 | 9.8
6 | B6 | 6.5 | 4.5
7 | B7 | 1.1 | 1.1
8 | B8 | 1.1 | 1.1
